Measurements published in US6995244 (OHIO STATE UNIVERSITY, dated 2006).

T1: human prolactin receptor on transfected FDC-P1 cells (human, UniProt P16471 25-622)
T1 sequence (looked up): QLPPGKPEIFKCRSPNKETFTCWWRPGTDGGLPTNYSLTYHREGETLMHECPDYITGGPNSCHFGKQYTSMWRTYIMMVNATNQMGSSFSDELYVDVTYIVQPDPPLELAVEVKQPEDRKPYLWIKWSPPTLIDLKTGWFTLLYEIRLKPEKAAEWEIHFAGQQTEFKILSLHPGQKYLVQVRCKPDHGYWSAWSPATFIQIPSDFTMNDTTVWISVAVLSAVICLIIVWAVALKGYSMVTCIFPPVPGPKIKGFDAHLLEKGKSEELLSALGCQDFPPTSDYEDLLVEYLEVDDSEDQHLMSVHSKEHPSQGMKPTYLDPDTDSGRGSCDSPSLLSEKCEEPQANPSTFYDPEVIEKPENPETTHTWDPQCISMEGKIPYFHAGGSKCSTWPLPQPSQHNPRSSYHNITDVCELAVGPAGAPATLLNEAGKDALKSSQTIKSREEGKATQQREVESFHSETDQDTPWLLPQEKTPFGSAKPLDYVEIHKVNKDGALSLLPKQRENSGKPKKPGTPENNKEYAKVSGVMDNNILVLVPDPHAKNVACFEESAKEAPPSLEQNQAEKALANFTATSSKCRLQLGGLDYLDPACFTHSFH

T2: extracellular domain of the human prolactin receptor (human, UniProt P16471 25-234)
T2 construct: extracellular domain; also called extracellular domain of the human lactogenic receptor; lactogenic receptor
T2 sequence (looked up): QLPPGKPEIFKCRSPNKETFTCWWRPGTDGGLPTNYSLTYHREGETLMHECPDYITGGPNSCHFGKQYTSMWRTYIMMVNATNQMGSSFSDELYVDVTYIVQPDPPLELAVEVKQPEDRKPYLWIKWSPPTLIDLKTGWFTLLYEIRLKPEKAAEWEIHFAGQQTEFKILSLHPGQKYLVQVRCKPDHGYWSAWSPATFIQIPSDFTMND


How the values were obtained:
[1] = target: growth hormone receptor (FDC-P1 somatotrophic assay); assay: cell-based or functional assay
[2] = target: human prolactin receptor on transfected FDC-P1 cells (human) (UniProt P16471); assay: cell-based or functional assay
[3] = target: T1, human prolactin receptor on transfected …; assay: cell-based or functional assay
[4] = target: T2, extracellular domain of the human …; assay: SPR, saturating equilibrium at 100 µM receptor ECD (FIG. 10, lower panel)
Protocol: Experiments were then performed in studies that measured the maximal binding of lactogenic receptor (the extracellular domain of the prolactin receptor prepared by recombinant DNA technology). The various prolactins were bound with high concentrations (100 μM) of extracellular domain of the human prolactin receptor.

[5] = target: T2, extracellular domain of the human …; assay: SPR (BIACORE 3000), prolactin coupled to the chip through Cys 158, receptor ECD 50-800 nM, induced-fit model, site 1 (KD1)
Protocol: (§1) The extracellular domain of the human lactogenic receptor was flowed across the prolactin-linked chip surface at various concentrations and the binding kinetics followed by the optical bench. Human lactogenic receptor (extracellular domain) concentrations varied between 50 nM and 800 nM. […] A single receptor model was used for G129C human prolactin, where site 2 was blocked by the chemistry employed to couple the protein to the chip surface.
(§2) Rate constants were calculated from the association and dissociation curves, respectively, with concentrations of the extracellular domain of the human lactogenic receptor (50, 80, 100, 200, 500 and 800 nM).

[6] = target: T2, extracellular domain of the human …; assay: SPR (BIACORE 3000), prolactin coupled to the chip through Cys 158, receptor ECD 50-800 nM, induced-fit model, site 1 (ka1)
Protocol: as §1, §2

[7] = target: T2, extracellular domain of the human …; assay: SPR (BIACORE 3000), prolactin coupled to the chip through Cys 158, receptor ECD 50-800 nM, induced-fit model, site 2 (KD2)
Protocol: as §1, §2

[8] = target: T2, extracellular domain of the human …; assay: SPR (BIACORE 3000), prolactin coupled to the chip through Cys 158, receptor ECD 50-800 nM, induced-fit model, site 2 (ka2)
Protocol: as §1, §2

[9] = target: T2, extracellular domain of the human …; assay: SPR (BIACORE 3000), prolactin coupled to the chip through Cys 158, receptor ECD 50-800 nM, induced-fit model, site 2 (kd2)
Protocol: as §1, §2

[10] = target: T2, extracellular domain of the human …; assay: SPR (BIACORE 3000), prolactin coupled to the chip through Cys 158, receptor ECD 50-800 nM, induced-fit model, site 1 (kd1); site 1 (kd1), prolactin coupled through Cys 158
Protocol: as §1, §2

[11] = target: T2, extracellular domain of the human …; assay: SPR (BIACORE 3000), prolactin coupled to the chip through residue 129 (site 2 blocked), receptor ECD 50-800 nM, single-site model, site 1 (KD1)
Protocol: as §1, §2

[12] = target: T2, extracellular domain of the human …; assay: SPR (BIACORE 3000), prolactin coupled to the chip through residue 129 (site 2 blocked), receptor ECD 50-800 nM, single-site model, site 1 (ka1)
Protocol: as §1, §2

[13] = target: T2, extracellular domain of the human …; assay: SPR (BIACORE 3000), prolactin coupled to the chip through residue 129 (site 2 blocked), receptor ECD 50-800 nM, single-site model, site 1 (kd1)
Protocol: as §1, §2

| Molecule | ED50 (nM), FDC-P1 somatotrophic assay [1] [nM] | ED50 (nM), FDC-P1 lactogenic assay (cell proliferation, Alamar blue) [3] [nM] | Relative fold loss of activity, FDC-P1 lactogenic assay [3] [fold] | further results |
| --- | --- | --- | --- | --- |
| L163A human growth hormone (from UniProt P01241 27-217) (ligand) | 0.13 | – | – | – |
| L93E human growth hormone (from UniProt P01241 27-217) (ligand) | 0.234 | – | – | – |
| wild-type recombinant human growth hormone (from UniProt P01241 27-217) (ligand) | 0.0712 | – | – | ED50 (nM), FDC-P1 lactogenic assay [2]: 1.76 nM |
| Y160E human growth hormone (from UniProt P01241 27-217) (ligand) | 0.186 | – | – | – |
| F44E human growth hormone (from UniProt P01241 27-217) (ligand) | 0.576 | – | – | – |
| L163F human growth hormone (from UniProt P01241 27-217) (ligand) | 0.235 | – | – | – |
| Y164E human growth hormone (from UniProt P01241 27-217) (ligand) | 0.151 | – | – | – |
| L98E human prolactin (ligand) MLPICPGGAARCQVTLRDLFDRAVVLSHYIHNLSSEMFSEFDKRYTHGRGFITKAINSCHTSSLATPEDKEQAQQMNQKDFLSLIVSILRSWNEPLYHEVTEVRGMQEAPEAILSKAVEIEEQTKRLLEGMELIVSQVHPETKENEIYPVWSGLPSLQMADEESRLSAYYNLLHCLRRDSHKIDNYLKLLKCRIIHNNNC | – | 63.1 | 87.7 | – |
| F50E human prolactin (ligand) MLPICPGGAARCQVTLRDLFDRAVVLSHYIHNLSSEMFSEFDKRYTHGRGEITKAINSCHTSSLATPEDKEQAQQMNQKDFLSLIVSILRSWNEPLYHLVTEVRGMQEAPEAILSKAVEIEEQTKRLLEGMELIVSQVHPETKENEIYPVWSGLPSLQMADEESRLSAYYNLLHCLRRDSHKIDNYLKLLKCRIIHNNNC | – | 1 | 5 | – |
| L171E human prolactin (ligand) MLPICPGGAARCQVTLRDLFDRAVVLSHYIHNLSSEMFSEFDKRYTHGRGFITKAINSCHTSSLATPEDKEQAQQMNQKDFLSLIVSILRSWNEPLYHLVTEVRGMQEAPEAILSKAVEIEEQTKRLLEGMELIVSQVHPETKENEIYPVWSGLPSLQMADEESRLSAYYNELHCLRRDSHKIDNYLKLLKCRIIHNNNC | – | 5.7 | 8 | – |
| L95E human prolactin (ligand) MLPICPGGAARCQVTLRDLFDRAVVLSHYIHNLSSEMFSEFDKRYTHGRGFITKAINSCHTSSLATPEDKEQAQQMNQKDFLSLIVSILRSWNEPEYHLVTEVRGMQEAPEAILSKAVEIEEQTKRLLEGMELIVSQVHPETKENEIYPVWSGLPSLQMADEESRLSAYYNLLHCLRRDSHKIDNYLKLLKCRIIHNNNC | – | 5.6 | 7.8 | – |
| H173E human prolactin (ligand) MLPICPGGAARCQVTLRDLFDRAVVLSHYIHNLSSEMFSEFDKRYTHGRGFITKAINSCHTSSLATPEDKEQAQQMNQKDFLSLIVSILRSWNEPLYHLVTEVRGMQEAPEAILSKAVEIEEQTKRLLEGMELIVSQVHPETKENEIYPVWSGLPSLQMADEESRLSAYYNLLECLRRDSHKIDNYLKLLKCRIIHNNNC | – | 1130 | 1570 | – |
| Y169E human prolactin (ligand) MLPICPGGAARCQVTLRDLFDRAVVLSHYIHNLSSEMFSEFDKRYTHGRGFITKAINSCHTSSLATPEDKEQAQQMNQKDFLSLIVSILRSWNEPLYHLVTEVRGMQEAPEAILSKAVEIEEQTKRLLEGMELIVSQVHPETKENEIYPVWSGLPSLQMADEESRLSAYENLLHCLRRDSHKIDNYLKLLKCRIIHNNNC | – | 64.8 | 90 | – |
| L165E human prolactin (ligand) MLPICPGGAARCQVTLRDLFDRAVVLSHYIHNLSSEMFSEFDKRYTHGRGFITKAINSCHTSSLATPEDKEQAQQMNQKDFLSLIVSILRSWNEPLYHLVTEVRGMQEAPEAILSKAVEIEEQTKRLLEGMELIVSQVHPETKENEIYPVWSGLPSLQMADEESRESAYYNLLHCLRRDSHKIDNYLKLLKCRIIHNNNC | – | 29.5 | 41 | – |
| M158C human prolactin (ligand, Cys 158 disulfide-coupled through a thiol to the dextran polymer of the SPR chip surface, Recombinant, expressed in E. coli) MLPICPGGAARCQVTLRDLFDRAVVLSHYIHNLSSEMFSEFDKRYTHGRGFITKAINSCHTSSLATPEDKEQAQQMNQKDFLSLIVSILRSWNEPLYHLVTEVRGMQEAPEAILSKAVEIEEQTKRLLEGMELIVSQVHPETKENEIYPVWSGLPSLQCADEESRLSAYYNLLHCLRRDSHKIDNYLKLLKCRIIHNNNC | – | – | – | stoichiometry (receptors bound to each prolactin) [4]: 2 receptors per prolactin; Kd [5]: 109 nM; kon [6]: 14300 M⁻¹ s⁻¹; Kd [7]: 153 nM; kon [8]: 2560 M⁻¹ s⁻¹; koff [9]: 0.00039 s⁻¹; koff [10]: 0.00157 s⁻¹ |
| G129C human prolactin (ligand, Cys 129 disulfide-coupled through a thiol to the dextran polymer of the SPR chip surface, Recombinant, E. coli) MLPICPGGAARCQVTLRDLFDRAVVLSHYIHNLSSEMFSEFDKRYTHGRGFITKAINSCHTSSLATPEDKEQAQQMNQKDFLSLIVSILRSWNEPLYHLVTEVRGMQEAPEAILSKAVEIEEQTKRLLECMELIVSQVHPETKENEIYPVWSGLPSLQMADEESRLSAYYNLLHCLRRDSHKIDNYLKLLKCRIIHNNNC | – | – | – | stoichiometry (receptors bound to each prolactin) [4]: ~1 receptors per prolactin; Kd [11]: 60.5 nM; kon [12]: 19600 M⁻¹ s⁻¹; koff [13]: 0.00119 s⁻¹ |
| ΔF50 human prolactin (ligand) MLPICPGGAARCQVTLRDLFDRAVVLSHYIHNLSSEMFSEFDKRYTHGRGITKAINSCHTSSLATPEDKEQAQQMNQKDFLSLIVSILRSWNEPLYHLVTEVRGMQEAPEAILSKAVEIEEQTKRLLEGMELIVSQVHPETKENEIYPVWSGLPSLQMADEESRLSAYYNLLHCLRRDSHKIDNYLKLLKCRIIHNNNC | – | 0.03 | 2.7 | – |
